B1: TEKT4 (parent)
chain: LREKLLEAEQSLRNLEDIHMSLEK
B2: CDC25A (parent)
chain: TVAGKHQDLKYISPEIMASVLNGK
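Note: lentivirally expressed fusions sorted by FACS into six bins by GFP to DsRed ratio, PSI derived from sequencing read proportions per bin multiplied by bin number.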

In the first series the parent is B1. Kind of series: protein stability index of a GFP-peptide fusion (GPS, HEK-293T) (PSI 1-6); higher = more stable. The settings on record: c terminus: a fixed tail appended.
With LREKLLEAEQSLRNLEGIHMSLEK [D17G], the protein stability index came to 2.81.

As for LREKLLEAEQSLRNLEQIHMSLEK [D17Q], the protein stability index came to 2.23.

As for LREKLLEAEQSLRNLELIHMSLEK [D17L], the protein stability index was 1.89.

Regarding LREKLLEAEQSLRNWEDIHMSLEK [L15W], the protein stability index amounted to 1.93.

LREKLLEAEQSLRNKEDIHMSLEK [L15K]: the protein stability index worked out at 2.71.

Take LREKLLEAEQSLRNGEDIHMSLEK [L15G]: the protein stability index amounted to 2.

Turning to LREKLLEAEQSLRNFEDIHMSLEK [L15F], the protein stability index is 3.29.

With LREKLLEAEQSLRNMEDIHMSLEK [L15M], the protein stability index came to 2.56.

For LREKLLEAEQSLRNHEDIHMSLEK [L15H], the protein stability index stood at 3.22.

Consider LREKLLEAEQSLRNREDIHMSLEK [L15R], for which the protein stability index amounted to 2.38.

LREKLLEAEQSLRNDEDIHMSLEK [L15D]: the protein stability index came to 1.55.

LREKLLEAEQSLRNEEDIHMSLEK [L15E]: the protein stability index stood at 2.71.

For LREKLLEAEQSLRNNEDIHMSLEK [L15N], the protein stability index is 2.65.

With LREKLLEAEQSLRNTEDIHMSLEK [L15T], the protein stability index is 2.47.

Regarding LREKLLEAEQSLRNYEDIHMSLEK [L15Y], the protein stability index came out at 2.29.

In the case of LREKLLEAEQSLRNQEDIHMSLEK [L15Q], the protein stability index came to 2.64.

With LREKLLEAEQSLRNIEDIHMSLEK [L15I], the protein stability index is 2.64.

For LREKLLEAEQSLRNCEDIHMSLEK [L15C], the protein stability index came to 2.81.

Regarding LREKLLEAEQSLRNSEDIHMSLEK [L15S], the protein stability index was determined as 3.36.

For LREKLLEAEQSLRNLEDQHMSLEK [I18Q], the protein stability index amounted to 2.62.

Take LREKLLEAEQSLRNLEDMHMSLEK [I18M]: the protein stability index was 1.95.

Take LREKLLEAEQSLRNLEDTHMSLEK [I18T]: the protein stability index stood at 3.28.

For the variant LREKLLEAEQSLRNLEDGHMSLEK [I18G], the protein stability index was 2.96.

For the variant LREKLLEAEQSLRNLEDYHMSLEK [I18Y], the protein stability index came to 2.3.

As for LREKLLEAEQSLRNLEDNHMSLEK [I18N], the protein stability index was 3.43.

Regarding LREKLLEAEQSLRNLEDEHMSLEK [I18E], the protein stability index was 1.69.

Consider LREKLLEAEQSLRNLEDFHMSLEK [I18F], for which the protein stability index stood at 3.02.

For the variant LREKLLEAEQSLRNLEDAHMSLEK [I18A], the protein stability index was determined as 2.81.

In the case of LREKLLEAEQSLRNLEDRHMSLEK [I18R], the protein stability index is 2.63.

In the case of LREKLLEAEQSLRNLEDKHMSLEK [I18K], the protein stability index came out at 3.16.

With LREKLLEAEQSLRNLEDDHMSLEK [I18D], the protein stability index stood at 3.33.

LREKLLEAEQSLRNLEDSHMSLEK [I18S]: the protein stability index was determined as 3.84.

For the variant LREKLLEAEQSLRNLEDWHMSLEK [I18W], the protein stability index turned out to be 3.13.

For the variant LREKLLEAEQSLRNLEDCHMSLEK [I18C], the protein stability index was 2.63.

LREKLLEAEQSLRNLEDVHMSLEK [I18V]: the protein stability index came to 3.21.

Consider LREKLLEAEQSLRNLEDIHMSTEK [L22T], for which the protein stability index is 3.05.

Regarding LREKLLEAEQSLRNLEDIHMSHEK [L22H], the protein stability index is 2.89.

With LREKLLEAEQSLRNLEDIHMSEEK [L22E], the protein stability index is 2.98.

As to LREKLLEAEQSLRNLEDIHMSKEK [L22K], the protein stability index was 3.54.

LREKLLEAEQSLRNLEDIHMSREK [L22R]: the protein stability index was determined as 3.2.

LREKLLEAEQSLRNLEDIHMSIEK [L22I]: the protein stability index was determined as 2.81.

As to LREKLLEAEQSLRNLEDIHMSMEK [L22M], the protein stability index worked out at 2.7.

As to LREKLLEAEQSLRNLEDIHMSCEK [L22C], the protein stability index stood at 3.73.

Turning to LREKLLEAEQSLRNLEDIHMSSEK [L22S], the protein stability index came to 2.65.

Regarding LREKLLEAEQSLRNLEDIHMSWEK [L22W], the protein stability index worked out at 1.55.

For the variant LREKLLEAEQSLRNLEDIHMSFEK [L22F], the protein stability index came to 1.98.

As to LREKLLEAEQSLRNLEDIHMSGEK [L22G], the protein stability index is 2.4.

In the case of LREKLLEAEQSLRNLEDIHMSYEK [L22Y], the protein stability index is 2.08.

In the case of LREKLLEAEQSLRNLEDIHMSVEK [L22V], the protein stability index is 2.09.

With LREKLLEAEQSLRNLEDIHMSNEK [L22N], the protein stability index worked out at 3.22.

As for LREKLLEAEQSLRNLEDIHMSAEK [L22A], the protein stability index was determined as 3.01.

Turning to LREKLLEAEQSLRNLEDIHMSQEK [L22Q], the protein stability index is 2.33.

Regarding LREKLLEAEQSLRNLEDIHMSLER [K24R], the protein stability index was 2.44.

Regarding LREKLLEAEQSLRNLEDIHMSLEI [K24I], the protein stability index was 1.81.

Turning to LREKLLEAEQSLRNLEDIHMSLEE [K24E], the protein stability index worked out at 2.53.

On to LREKLLEAEQSLRNLEDIHMSLEY [K24Y], for which the protein stability index is 1.68.

As for LREKLLEAEQSLRNLEDIHMSLEG [K24G], the protein stability index came out at 2.52.

On to LREKLLEAEQSLRNLEDIHMSLEL [K24L], for which the protein stability index came to 1.93.

With LREKLLEAEQSLRNLEDIHMSLEN [K24N], the protein stability index amounted to 2.13.

As to LREKLLEAEQSLRNLEDIHMSLET [K24T], the protein stability index was found to be 2.98.

Turning to LREKLLEAEQSLRNLEDIHMSLEQ [K24Q], the protein stability index was found to be 2.39.

Regarding LREKLLEAEQSLRNLEDIHMSLEP [K24P], the protein stability index amounted to 2.03.

As for LREKLLEAEQSLRNLEDIHMSLEC [K24C], the protein stability index was determined as 2.09.

Consider LREKLLEAEQSLRNLEDIHMSLES [K24S], for which the protein stability index is 2.35.

LREKLLEAEQSLRNLEDIHMSLEF [K24F]: the protein stability index amounted to 1.25.

On to LREKLLEAEQSLRNLEDIHMSLEH [K24H], for which the protein stability index is 4.

Variants of B2 are the subject of another series. Described as above. The settings on record: c terminus: a fixed tail appended.
With LVAGKHQDLKYISPEIMASVLNGK [T1L], the protein stability index worked out at 2.15.

As to RVAGKHQDLKYISPEIMASVLNGK [T1R], the protein stability index is 2.52.

As for AVAGKHQDLKYISPEIMASVLNGK [T1A], the protein stability index was 3.23.

For the variant KVAGKHQDLKYISPEIMASVLNGK [T1K], the protein stability index is 3.17.

Take MVAGKHQDLKYISPEIMASVLNGK [T1M]: the protein stability index came to 2.34.

In the case of IVAGKHQDLKYISPEIMASVLNGK [T1I], the protein stability index was 2.6.

In the case of HVAGKHQDLKYISPEIMASVLNGK [T1H], the protein stability index was determined as 2.89.

Consider DVAGKHQDLKYISPEIMASVLNGK [T1D], for which the protein stability index is 3.29.

WVAGKHQDLKYISPEIMASVLNGK [T1W]: the protein stability index turned out to be 2.06.

As for VVAGKHQDLKYISPEIMASVLNGK [T1V], the protein stability index is 2.52.

With SVAGKHQDLKYISPEIMASVLNGK [T1S], the protein stability index was 3.14.

Consider EVAGKHQDLKYISPEIMASVLNGK [T1E], for which the protein stability index turned out to be 3.45.

As to YVAGKHQDLKYISPEIMASVLNGK [T1Y], the protein stability index worked out at 3.42.

Turning to CVAGKHQDLKYISPEIMASVLNGK [T1C], the protein stability index was 3.07.

As to QVAGKHQDLKYISPEIMASVLNGK [T1Q], the protein stability index came out at 3.22.

Take FVAGKHQDLKYISPEIMASVLNGK [T1F]: the protein stability index was 1.9.

Consider NVAGKHQDLKYISPEIMASVLNGK [T1N], for which the protein stability index came out at 3.69.

As for GVAGKHQDLKYISPEIMASVLNGK [T1G], the protein stability index was 3.06.

On to PVAGKHQDLKYISPEIMASVLNGK [T1P], for which the protein stability index came out at 3.34.

Regarding TFAGKHQDLKYISPEIMASVLNGK [V2F], the protein stability index worked out at 2.94.

Take TEAGKHQDLKYISPEIMASVLNGK [V2E]: the protein stability index was found to be 3.68.

Regarding THAGKHQDLKYISPEIMASVLNGK [V2H], the protein stability index turned out to be 3.33.

Consider TKAGKHQDLKYISPEIMASVLNGK [V2K], for which the protein stability index came out at 2.92.

With TAAGKHQDLKYISPEIMASVLNGK [V2A], the protein stability index was determined as 3.28.

For the variant TIAGKHQDLKYISPEIMASVLNGK [V2I], the protein stability index came out at 2.91.

For the variant TDAGKHQDLKYISPEIMASVLNGK [V2D], the protein stability index was found to be 3.89.

With TCAGKHQDLKYISPEIMASVLNGK [V2C], the protein stability index was found to be 3.32.

In the case of TGAGKHQDLKYISPEIMASVLNGK [V2G], the protein stability index was determined as 3.33.
